What was measured:
[1] = tested on: patients with metastatic colorectal cancer (MCRC)
Description: Each randomized patient was to be treated until disease progression, death, or unacceptable toxicity.
Treatment arms were evenly balanced for demographics, disease characteristics and prior anti-cancer treatments, including prior exposition to bevacizumab.
Patients received a median of 9 cycles of ZALTRAP/FOLFIRI or 8 cycles of placebo/FOLFIRI.

[2] = tested on: patients with metastatic colorectal cancer (MCRC); assay: EFC10262 (VELOUR) randomized double-blind phase 3 study: efficacy (OS, PFS, response rate);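 also: Placebo-controlled comparison, both arms on FOLFIRI every 2 weeks until progression or intolerable toxicity, in patients progressing on or within 6 months after oxaliplatin-based combination chemotherapy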
Description: Each randomized patient was to be treated until disease progression, death, or unacceptable toxicity. […] The predefined statistical significance level for this final analysis was 0.0466 after adjusting the type I error spent for the two interim analyses using the O'Brien-Fleming spending function.
The study included one formal interim analysis, planned for the purpose of efficacy, when 561 death events (65% information time) had occurred. Upon request of the independent Data Monitoring Committee (DMC), an additional interim analysis of OS was performed to provide an early evaluation of the benefit-risk ratio, when 315 death events (36.5% information fraction) had occurred.
A total of approximately 863 deaths were required to detect 20% hazard rate reduction in OS with 90% power using the two-sided log rank test at an overall 0.0499 alpha level. The median survival times was expected to be 11 months for the control group. The overall alpha level was split between overall survival (0.0499) and progression-free survival as a secondary efficacy endpoint (0.0001).
Approximately 1200 patients (i.e. 600 patients per treatment group) were planned to be randomized. Treatment assignment was stratified according to prior therapy with bevacizumab (yes or no), and ECOG performance status (PS) (0 vs 1 vs 2).
The enrolment started in November 2007 and was completed in March 2010. A total of 1226 patients were randomized. […] Treatment arms were evenly balanced for demographics, disease characteristics and prior anti-cancer treatments, including prior exposition to bevacizumab.
Immediately after, patients received irinotecan, 5-FU and leucovorin (FOLFIRI regimen). This treatment was repeated every 2 weeks.
Study 1 was a randomized, double-blind, placebo-controlled study in patients with metastatic colorectal cancer (mCRC) who are resistant to or have progressed during or within 6 months of receiving oxaliplatin-based combination chemotherapy, with or without prior bevacizumab. A total of 1226 patients were randomized (1:1) to receive either ZALTRAP (N=612; 4 mg per kg as a 1 hour intravenous infusion on day 1) or placebo (N=614), in combination with 5-fluorouracil plus irinotecan [FOLFIRI: irinotecan 180 mg per m2 IV infusion over 90 minutes and leucovorin (dl racemic) 400 mg per m^2 intravenous infusion over 2 hours at the same time on day 1 using a Y-line, followed by 5-FU 400 mg per m^2 intravenous bolus, followed by 5-FU 2400 mg per m^2 continuous intravenous infusion over 46-hours]. The treatment cycles on both arms were repeated every 2 weeks. Patients were treated until disease progression or unacceptable toxicity. The primary efficacy endpoint was overall survival. Treatment assignment was stratified by the ECOG performance status (0 versus 1 versus 2) and according to prior therapy with bevacizumab (yes or no).

[3] = adverse reaction, N = 611, listed as ZALTRAP/FOLFIRI
[4] = compilation of clinical and laboratory data, N = 611, listed as ZALTRAP/FOLFIRI
[5] = Kaplan-Meier, IRC, ITT population
[6] = by IRC, evaluable patient population N = 531
[7] = overall survival, Kaplan-Meier, ITT population

Ziv-aflibercept/Folfiri: ziv-aflibercept 4 mg/kg in combination with FOLFIRI (folinic acid, 5-fluorouracil and irinotecan) given intravenously every 2 weeks
Grade 4 hypertension (hypertensive crisis) ([1]; 1 patient): 0.2% | Grade 3 compromised wound healing ([1]; 2 patients): 0.3% | Nephrotic syndrome ([1]; 2 patients): 0.5% | fistulas (anal, enterovesical, enterocutaneous, colovaginal, intestinal sites) ([1]; 9 of 611 patients with mCRC): 1.5% | Grade 3-4 ATE ([1]; 11 patients): 1.8% | Patients with any TEAE ([1]; Safety population N = 611): 606 (99.2%) number (%) of patients | Patients with any TEAE leading to death ([1]; Safety population N = 611): 37 (6.1%) number (%) of patients | Patients with any TEAE leading to permanent treatment discontinuation ([1]; Safety population N = 611): 164 (26.8%) number (%) of patients | Patients with any TEAE leading to premature treatment discontinuation ([1]; Safety population N = 611): 119 (19.5%) number (%) of patients | Patients with any grade 3-4 TEAE ([1]; Safety population N = 611): 510 (83.5%) number (%) of patients | Patients with any related TEAE leading to death ([1]; Safety population N = 611): 6 (1.0%) number (%) of patients | Patients with any serious TEAE ([1]; Safety population N = 611): 294 (48.1%) number (%) of patients | Cycle delays >7 days ([1]; Study 1): 60 % of patients | Infections, Grade 3-4 ([1]; Study 1): 12% | Infections, all grades ([1]; Study 1): 46% | Alopecia (PT), All Gr ([1]; TEAE, safety population): 26.8 % of patients | Asthenic condition (HLT), All Gr ([1]; TEAE, safety population): 60.4 % of patients | Asthenic condition (HLT), Gr 3/4 ([1]; TEAE, safety population): 16.9 % of patients | Constipation (PT), All Gr ([1]; TEAE, safety population): 22.4 % of patients | Constipation (PT), Gr 3/4 ([1]; TEAE, safety population): 0.8 % of patients | Decrease appetite (PT), All Gr ([1]; TEAE, safety population): 31.9 % of patients | Decrease appetite (PT), Gr 3/4 ([1]; TEAE, safety population): 3.4 % of patients | Dehydration (PT), All Gr ([1]; TEAE, safety population): 9.0 % of patients | Diarrhea (PT), All Gr ([1]; TEAE, safety population): 69.2 % of patients | Dysphonia (PT), All Gr ([1]; TEAE, safety population): 25.4 % of patients | Epistaxis (PT), All Gr ([1]; TEAE, safety population): 27.7 % of patients | GI and abdominal pains (HLT), All Gr ([1]; TEAE, safety population): 34.0 % of patients | GI and abdominal pains (HLT), Gr 3/4 ([1]; TEAE, safety population): 5.4 % of patients | Headache (PT), All Gr ([1]; TEAE, safety population): 22.3 % of patients | Hypertension (grouping), All Gr ([1]; TEAE, safety population): 41.4 % of patients | Hypertension (grouping), Gr 3/4 ([1]; TEAE, safety population): 19.3 % of patients | Infections (SOC), All Gr ([1]; TEAE, safety population): 46.2 % of patients | Musculoskeletal & connective pain & discomfort (HLT), All Gr ([1]; TEAE, safety population): 23.1 % of patients | Musculoskeletal & connective pain & discomfort (HLT), Gr 3/4 ([1]; TEAE, safety population): 1.3 % of patients | Nausea (PT), All Gr ([1]; TEAE, safety population): 53.4 % of patients | Palmar plantar erythrodysaesthesia (PT), All Gr ([1]; TEAE, safety population): 11.0 % of patients | Palmar plantar erythrodysaesthesia (PT), Gr 3/4 ([1]; TEAE, safety population): 2.8 % of patients | Skin hyperpigmentation (PT), All Gr ([1]; TEAE, safety population): 8.2 % of patients | Skin hyperpigmentation (PT), Gr 3/4 ([1]; TEAE, safety population): 0 % of patients | Stomatitis & ulceration (HLT), All Gr ([1]; TEAE, safety population): 54.8 % of patients | Stomatitis & ulceration (HLT), Gr 3/4 ([1]; TEAE, safety population): 13.7 % of patients | Vomiting (PT), All Gr ([1]; TEAE, safety population): 32.9 % of patients | Weight decrease (PT), All Gr ([1]; TEAE, safety population): 31.9 % of patients | Weight decrease (PT), Gr 3/4 ([1]; TEAE, safety population): 2.6 % of patients | Abdominal Pain Upper, All grades ([1]; adverse reaction, N = 611): 11% | Abdominal Pain Upper, Grades 3-4 ([1]; adverse reaction, N = 611): 1% | Abdominal Pain, All grades ([1]; adverse reaction, N = 611): 27% | Abdominal Pain, Grades 3-4 ([1]; adverse reaction, N = 611): 4% | Asthenia, All grades ([1]; adverse reaction, N = 611): 18% | Asthenia, Grades 3-4 ([1]; adverse reaction, N = 611): 5% | Decreased Appetite, All grades ([1]; adverse reaction, N = 611): 32% | Decreased Appetite, Grades 3-4 ([1]; adverse reaction, N = 611): 3% | Dehydration, All grades ([1]; adverse reaction, N = 611): 9% | Diarrhea, All grades ([1]; adverse reaction, N = 611): 69% | Dysphonia, All grades ([1]; adverse reaction, N = 611): 25% | Dyspnea, All grades ([1]; adverse reaction, N = 611): 12% | Epistaxis, All grades ([1]; adverse reaction, N = 611): 28% | Fatigue, All grades ([1]; adverse reaction, N = 611): 48% | Fatigue, Grades 3-4 ([1]; adverse reaction, N = 611): 13% | Headache, All grades ([1]; adverse reaction, N = 611): 22% | Headache, Grades 3-4 ([1]; adverse reaction, N = 611): 2% | Hemorrhoids, All grades ([1]; adverse reaction, N = 611): 6% | Hemorrhoids, Grades 3-4 ([1]; adverse reaction, N = 611): 0% | Hypertension, All grades ([1]; adverse reaction, N = 611): 41% | Hypertension, Grades 3-4 ([1]; adverse reaction, N = 611): 19% | Leukopenia, All grades ([1]; adverse reaction, N = 611): 78% | Leukopenia, Grades 3-4 ([1]; adverse reaction, N = 611): 16% | Neutropenia, All grades ([1]; adverse reaction, N = 611): 67% | Oropharyngeal Pain, All grades ([1]; adverse reaction, N = 611): 8% | Palmar-Plantar Erythrodysesthesia Syndrome, All grades ([1]; adverse reaction, N = 611): 11% | Palmar-Plantar Erythrodysesthesia Syndrome, Grades 3-4 ([1]; adverse reaction, N = 611): 3% | Proctalgia, All grades ([1]; adverse reaction, N = 611): 5% | Rectal Hemorrhage, All grades ([1]; adverse reaction, N = 611): 5% | Rhinorrhea, All grades ([1]; adverse reaction, N = 611): 6% | Rhinorrhea, Grades 3-4 ([1]; adverse reaction, N = 611): 0% | Skin Hyperpigmentation, All grades ([1]; adverse reaction, N = 611): 8% | Skin Hyperpigmentation, Grades 3-4 ([1]; adverse reaction, N = 611): 0% | Stomatitis, All grades ([1]; adverse reaction, N = 611): 50% | Stomatitis, Grades 3-4 ([1]; adverse reaction, N = 611): 13% | Thrombocytopenia, All grades ([1]; adverse reaction, N = 611): 48% | Thrombocytopenia, Grades 3-4 ([1]; adverse reaction, N = 611): 3% | Urinary Tract Infection, All grades ([1]; adverse reaction, N = 611): 9% | Weight decreased, All grades ([1]; adverse reaction, N = 611): 32% | Weight decreased, Grades 3-4 ([1]; adverse reaction, N = 611): 3% | Dehydration, Grades 3-4 [1, 3]: 4% | Diarrhea, Grades 3-4 [1, 3]: 19% | Neutropenia, Grades 3-4 [1, 3]: 37% | onset of Grade 3-4 hypertension during the first two cycles of treatment ([1]; among patients developing Grade 3-4 hypertension): 54% | Proteinuria, All grades [1, 4]: 62% | Proteinuria, Grades 3-4 [1, 4]: 8% | Grade 3-4 hemorrhagic events ([1]; including gastrointestinal hemorrhage, hematuria, post-procedural hemorrhage): 3% | ALT increased, All grades ([1]; laboratory finding, N = 611): 50% | ALT increased, Grades 3-4 ([1]; laboratory finding, N = 611): 3% | AST increased, All grades ([1]; laboratory finding, N = 611): 62% | AST increased, Grades 3-4 ([1]; laboratory finding, N = 611): 3% | Serum creatinine increased, All grades ([1]; laboratory finding, N = 611): 23% | Serum creatinine increased, Grades 3-4 ([1]; laboratory finding, N = 611): 0% | Arterial thromboembolic events (ATE) ([1]; patients with mCRC): 2.6% | Grade 3-4 VTE ([1]; patients with mCRC): 8% | Grade 3-4 febrile neutropenia ([1]; patients with mCRC): 4% | Grade 3-4 neutropenic infection/sepsis ([1]; patients with mCRC): 1.5% | Grade 3 hypertension ([1]; patients with mCRC): 19% | Pulmonary embolism ([1]; patients with mCRC): 5% | bleeding/hemorrhage (all grades) ([1]; patients with mCRC): 38% | severe hypersensitivity reactions ([1]; patients with mCRC): 0.3% | venous thromboembolic events (VTE) ([1]; patients with mCRC): 9% | PFS, Probability of surviving (99.99% CI), 3 months [2, 5]: 0.793 | PFS, Probability of surviving (99.99% CI), 6 months [2, 5]: 0.573 | PFS, Probability of surviving (99.99% CI), 9 months [2, 5]: 0.313 | PFS, Probability of surviving (99.99% CI), 12 months [2, 5]: 0.166 | PFS, Probability of surviving (99.99% CI), 18 months [2, 5]: 0.051 | Progression Free Survival: Number of events, n (%) ([2]; Study 1, IRC): 393 (64.2%) n (%) | Overall Survival: Number of deaths, n (%) ([2]; Study 1, N = 612): 403 (65.8%) n (%) | Best Overall Response: Not evaluable, % [2, 6]: (4.0%) | Best Overall Response: Partial response, % [2, 6]: (19.8%) | Best Overall Response: Progressive disease, % [2, 6]: (10.4%) | Best Overall Response: Stable disease, % [2, 6]: (65.9%) | Overall Response: Responders (Complete response or Partial response), % [2, 6]: (19.8%) | Survival probability (95.34% CI), 3 months [2, 7]: 0.931 | Survival probability (95.34% CI), 6 months [2, 7]: 0.819 | Survival probability (95.34% CI), 9 months [2, 7]: 0.687 | Survival probability (95.34% CI), 12 months [2, 7]: 0.561 | Survival probability (95.34% CI), 18 months [2, 7]: 0.385 | Survival probability (95.34% CI), 24 months [2, 7]: 0.280 | overall survival HR (95% CI) ([2]; patients who received prior bevacizumab): 0.86 | overall survival HR (95% CI) ([2]; patients without prior bevacizumab exposure): 0.79

Reference: US20150216795A1 (SANOFI, priority 2012, published 2015)
